Source: publication PMC8003079, “Virus-Like Particles Produced Using the Brome Mosaic Virus Recombinant Capsid Protein Expressed in a Bacterial System” (International Journal of Molecular Sciences, 2021)

B1: recombinant brome mosaic virus (BMV) capsid protein (natural protein)
chain: MSTSGTGKMTRAQRRAAARRNRWTARVQPVIVEPLAAGQGKAIKAIAGYSISKWEASSDAITAKATNAMSITLPHELSSEKNKELKVGRVLLWLGLLPSVAGRIKACVAEKQAQAEAAFQVALAVADSSKEVVAAMYTDAFRGATLGDLLNLQIYLYASEAVPAKAVVVHLEVEHVRPTFDDFFTPVYR
notes: brome mosaic virus capsid (coat) protein; In the MST assay one copy was labelled with Monolith NT Protein Labeling Kit RED-NHS 647 and titrated with unlabelled rCP; also called rCP; CP; source: E. coli Rosetta 2(DE3)pLysS, purified (Ni-NTA, TEV digestion, second Ni-NTA); not shown: His tag (inferred from Ni-NTA purification; vector pMCSG48), N-terminal, cleaved
B2: mutated BMV capsid protein (L123D and F183T) (natural protein, brome mosaic virus)
chain: MSTSGTGKMTRAQRRAAARRNRWTARVQPVIVEPLAAGQGKAIKAIAGYSISKWEASSDAITAKATNAMSITLPHELSSEKNKELKVGRVLLWLGLLPSVAGRIKACVAEKQAQAEAAFQVADAVADSSKEVVAAMYTDAFRGATLGDLLNLQIYLYASEAVPAKAVVVHLEVEHVRPTFDDTFTPVYR
notes: brome mosaic virus capsid (coat) protein with two designed mutations; also called rCP mutant; mutated rCP; source: E. coli Rosetta 2(DE3)pLysS, purified as the wild-type BMV CP (Ni-NTA, TEV digestion, second Ni-NTA); not shown: His tag (inferred from Ni-NTA purification; vector pMCSG48), N-terminal, cleaved

How the values were obtained:
[1] = molecular target: the molecule itself; experiment: MST; labelled rCP (RED-NHS 647, 50 nM) titrated with unlabelled rCP (from 15 uM); 50 mM Tris pH 8.5, 5 mM MgCl2, 150 mM NaCl; step of self-association not stated
[2] = molecular target: the molecule itself; experiment: MST; labelled rCP (RED-NHS 647, 50 nM) titrated with unlabelled rCP (from 15 uM); 50 mM Tris pH 7.5, 5 mM MgCl2, 1000 mM NaCl; step of self-association not stated
[3] = molecular target: the molecule itself; experiment: MST; labelled rCP (RED-NHS 647, 50 nM) titrated with unlabelled rCP (from 15 uM); 50 mM Tris pH 7.5, 5 mM MgCl2, 600 mM NaCl; step of self-association not stated
[4] = molecular target: the molecule itself; experiment: MST; labelled rCP (RED-NHS 647, 50 nM) titrated with unlabelled rCP (from 15 uM); 50 mM Tris pH 6.8, 5 mM MgCl2, 150 mM NaCl; step of self-association not stated
[5] = molecular target: the molecule itself; experiment: cross-linking; 5 mM DSS, rCP in MST buffer pH 7.5; 5, 10, 15 and 30 min; SDS-PAGE
[6] = molecular target: the molecule itself; experiment: MST; labelled rCP (RED-NHS 647, 50 nM) titrated with unlabelled rCP (from 15 uM); 50 mM Tris pH 7.5, 5 mM MgCl2, 150 mM NaCl; step of self-association not stated
[7] = molecular target: the molecule itself; experiment: MST; labelled rCP (RED-NHS 647, 50 nM) titrated with unlabelled rCP (from 15 uM); 50 mM Tris pH 7.5, 5 mM MgCl2, 300 mM NaCl; step of self-association not stated
[8] = molecular target: the molecule itself; experiment: cryo-TEM imaging; empty VLPs assembled without cargo by two-step dialysis; vitrified samples, 120 kV

Row | Protein | Kd [1] | Kd [2] | Kd [3] | Kd [4] | stoichiometry N [5] | Kd [6] | Kd [7] | binding result [8]
1 | B1 | 175 nM | 111 nM | 72 nM | 6.8 nM | 2 | 35 nM | 62 nM | –
2 | B2 | – | – | – | – | – | – | – | binds
